The values that follow come from patent US20210155689A1 (SHANGHAI PHARMAEXPLORER, published 2021).

Substitutions are numbered along the chain they refer to.

For assay [1], the target named is T1, LAG-3-hFc protein (human LAG-3 extracellular region with hFc tag) (human, UniProt P18627 23-450).
T1 construct: also called hLAG-3-hFc; LAG-3 protein; not shown: human IgG Fc fragment (hFc) of the pCpC vector
T1 sequence: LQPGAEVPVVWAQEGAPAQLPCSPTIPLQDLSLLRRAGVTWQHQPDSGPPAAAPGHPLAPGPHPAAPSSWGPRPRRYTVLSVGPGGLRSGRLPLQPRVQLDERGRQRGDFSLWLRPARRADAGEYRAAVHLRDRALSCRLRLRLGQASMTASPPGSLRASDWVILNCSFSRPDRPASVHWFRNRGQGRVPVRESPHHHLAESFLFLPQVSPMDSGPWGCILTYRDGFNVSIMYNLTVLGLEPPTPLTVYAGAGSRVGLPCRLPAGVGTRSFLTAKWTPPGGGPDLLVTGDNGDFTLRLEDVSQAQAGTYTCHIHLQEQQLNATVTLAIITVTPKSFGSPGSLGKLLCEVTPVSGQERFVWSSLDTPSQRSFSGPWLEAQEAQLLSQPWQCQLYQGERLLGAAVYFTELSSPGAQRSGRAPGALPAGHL
Briefly: FACS, inhibition of LAG-3-hFc binding to MHC II on Raji cells, antibody 2.469 nM. As to the method: The FACS reaction plate incubating the Raji cells was centrifuged to discard the supernatant. The above mixture was added as 100 μl per well to Raji cells and incubated on ice for 1-2 hours. The plate was washed twice with blocking solution (PBS, 2% fetal bovine serum) by centrifugation, added with 100 microliters of fluorescent (Alexa 488)-labeled secondary antibodies per well, and incubated on ice for 1.0 hours. The plate was washed 2-3 times by centrifugation with blocking solution (PBS, 2% fetal bovine serum), added with 100 microliters of PBS per well to suspend cells, and detected using FACS (FACS Calibur, BD) and the results were analyzed. Wherein, the IgG control was murine IgG, and the data in the table is the inhibition rate (%).

The target of assay [2] is T2, human LAG-3 protein with hFc tag (hLAG-3-hFc protein) (human, UniProt P18627 23-450).
T2 construct: also called immunogen 1; LAG-3 extracellular domain protein; not shown: human IgG Fc fragment (hFc) of the pCpC vector
T2 sequence: T1 sequence
The assay can be described thus: ELISA, hLAG-3-hFc coated; 0.0000 nM. As to the method:
(§1) The plate was sealed with plastic film and incubated overnight at 4° C. The plate was washed 2 times with the plate washing solution (PBS+0.01% Tween20) on the next day, and added with the blocking solution (PBS+0.01% Tween20+1% BSA) and blocked at room temperature for 1-2 hours. The blocking solution was poured out, and the plate was added with 50-100 μl of the antibody sample to be tested to each well, incubated at 37° C. for 1-2 hours, and washed 2-3 times with a plate washing solution (PBS+0.01% Tween20). HRP (horseradish peroxidase) labeled secondary antibody was added, and the plate was incubated at 37° C. for 1-2 hours, and washed 2-3 times with a plate washing solution (PBS+0.01% Tween20). 100 μl of TMB substrate was added to each well. After incubated at room temperature for 15-30 minutes, the plate was added with 100 μl of stop solution (1.0N HCl) to each well.

Assay [3] concerns the target T2, human LAG-3 protein with hFc tag …. The assay can be described thus: ELISA, hLAG-3-hFc coated; 0.0067 nM. As to the method:
as §1

Assay [4] deals with T3, mouse LAG-3 protein with hFc tag (mLAG-3-hFc protein) (mouse; human, UniProt Q61790 24-442).
T3 construct: Made in HEK293 cells; also called mouse LAG-3 extracellular domain protein; not shown: human IgG Fc fragment (hFc) of the pCpC vector
T3 sequence: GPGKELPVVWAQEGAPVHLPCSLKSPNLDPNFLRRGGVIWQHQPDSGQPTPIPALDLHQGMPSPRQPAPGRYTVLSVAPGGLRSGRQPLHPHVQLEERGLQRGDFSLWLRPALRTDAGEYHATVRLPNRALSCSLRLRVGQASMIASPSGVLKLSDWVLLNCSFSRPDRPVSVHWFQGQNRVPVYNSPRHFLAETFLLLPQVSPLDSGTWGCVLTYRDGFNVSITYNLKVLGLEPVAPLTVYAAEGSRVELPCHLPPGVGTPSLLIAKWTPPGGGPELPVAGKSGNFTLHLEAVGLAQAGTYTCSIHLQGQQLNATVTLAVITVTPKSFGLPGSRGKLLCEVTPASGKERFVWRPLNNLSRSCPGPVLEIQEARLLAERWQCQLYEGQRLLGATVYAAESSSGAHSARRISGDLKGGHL
Briefly: ELISA, mLAG-3-hFc coated; 0.0667 nM. As to the method: as §1

B1: 105F1E10 mouse-human chimeric antibody (antibody, V domains shown)
VH: EVQLQQSGPELVKPGASVKMSCRASGYTFTDFKMHWMKQSHGKSLEWIGYIAPNNGGTAYNQKFRGKATLTVNESSNTAYMELRSLTSEDSAVYYCVDWDDVDYWGQGTTLTVSS
VL: DIKMTQSPSSMYASLGERVTITCKASQDINSYLSWFQQKSGKSPKTLIYRANRLVDGVPSRFSGSGSGQDYSLTISSLEYEDMGIYYCLQYVEFPLTFGAGTKLELK
notes: also called mAb009-105F1E10
As to B1, in assay [1], the “Inhibition rate (%)” value worked out at 8.2%.

B2: 105F1E10 (LAG-3 mouse-human chimeric antibody) (antibody, V domains shown)
VH: B1 VH
VL: B1 VL
Turning to B2, the OD450 in assay [2] was 0.11 OD450; in assay [3] it was 0.3 OD450; in assay [4] it was 0.08 OD450.

B3: 405B8H3 mouse-human chimeric antibody (antibody, V domains shown)
VH: QVQLQQSGAELVRPGASVTLSCKASGYTFTDYEMHWVKQTPVHGLEWIGATDPETGNSAYNQKFKGKAIMTADKSSSTAYMELRSLTSEDSAVYYCISTGWNDWGQGTSLTVSS
VL: B1 VL with S40P, N52D, V55L, E81G, V92D, L96Y, A100G, L106I
notes: also called mAb103-405B8H3
As to B3, the “Inhibition rate (%)” value in assay [1] stood at 55.8%.

B4: 405B8H3 (LAG-3 mouse-human chimeric antibody) (antibody, V domains shown)
VH: B3 VH
VL: B1 VL with S40P, N52D, V55L, E81G, V92D, L96Y, A100G, L106I
notes: also called mouse-human chimeric antibody 405B8H3
In the case of B4, the OD450 in assay [2] is 0.12 OD450; in assay [3] it was 0.57 OD450; in assay [4], 0.08 OD450.

B5: 409D4E10 mouse-human chimeric antibody (antibody, V domains shown)
VH: B3 VH with Y27N, G56D, S58T, M70L, A72T, S98T, T99S
VL: B1 VL with S40P, V55L, V92N, L96Y, A100G, L106I
notes: also called mAb112-409D4E10
Consider B5, for which, in assay [1], the “Inhibition rate (%)” value turned out to be 56.7%.

B6: 409B11E12 (LAG-3 mouse-human chimeric antibody) (antibody, V domains shown)
VH: B3 VH with P41T, G56S, N57Y, M70L, S98A
VL: B1 VL with I2L, S40P, V55L, V92D, L96Y, A100G, L106I
Turning to B6, the OD450 in assay [2] amounted to 0.13 OD450; in assay [3], 0.47 OD450; in assay [4], 0.09 OD450.

B7: 409B11E12 mouse-human chimeric antibody (antibody, V domains shown)
VH: B3 VH with P41T, G56S, N57Y, M70L, S98A
VL: B1 VL with I2L, S40P, V55L, V92D, L96Y, A100G, L106I
notes: also called mAb104-409B11E12
Turning to B7, the “Inhibition rate (%)” value in assay [1] stood at 59.2%.

B8: 409D4E10 (LAG-3 mouse-human chimeric antibody) (antibody, V domains shown)
VH: B3 VH with Y27N, G56D, S58T, M70L, A72T, S98T, T99S
VL: B1 VL with S40P, V55L, V92N, L96Y, A100G, L106I
B8: the OD450 in assay [2] was determined as 0.14 OD450; in assay [3], 0.63 OD450; in assay [4], 0.13 OD450.

B9: 556F6B8 mouse-human chimeric antibody (antibody, V domains shown)
VH: RVQLKQSGPGLVQPSQSLSITCTVSGFSLIKYGVHWVRQSPGEGLEWLGVIWRGGITDYNAAFMSRLSITKDNSKSQVFFKMNSLQADDTAIYYCAKWDGPLAMDYWGQGTSVTVSS
VL: DIVMTQSHKFLSTSVGDRVSITCKASQDVGTTVAWYQQKPGQSPKLLIYWASTRHTGVPDRFTGSGSGTDFTLTISNVQSEDLADYFCQQYSSYPYTFGGGTKLEIK
notes: also called mAb123-556F6B8; 556F8B8
Take B9: in assay [1], the “Inhibition rate (%)” value was found to be 41.5%.

B10: 556F6B8 (LAG-3 mouse-human chimeric antibody) (antibody, V domains shown)
VH: B9 VH
VL: B9 VL
notes: also called 556F8B8
As to B10, the OD450 amounted to 0.12 OD450 in assay [2], 0.38 OD450 in assay [3] and 0.11 OD450 in assay [4].
